Key:
CFPAC1 cells [1] = experiment: Transcriptional changes to EMT genes, qPCR; type: cell-based, human
Description: The CFPAC1 cell line was cultured in DMEM media (Gibco #11960) supplemented with 10% FBS (Sigma), 2 mM L Glutamine (Gibco), at 37° C., 5% CO2. For 7 day treatments, cells were seeded on tissue culture plastic in complete growth media and allowed to attach overnight at cell densities that would provide approximately 60-80% confluence at end of experiment. Ligand and/or inhibitor was added the following day (Day 0) in complete growth media and incubated at 37° C., 5% CO2. Ligand source and concentrations used are as follows: [1] From R&D systems, SDF-1α (stromal derived factor-1 alpha) at 100 ng/ml, TRANCE (TNF-related activation induced cytokine) at 50 ng/ml, FGF1 (fibroblast growth factor acidic) at 10 ng/ml, FGF2 (fibroblast growth factor basic) at 10 ng/ml, BMP4 (bone morphogenetic protein 4) at 100 ng/ml, BMP7 (bone morphogenetic protein 7) at 100 ng/ml, IGF2 (insulin-like growth factor 2) at 100 ng/ml, OSM (Oncostatin M) at 100 ng/ml, NRG1 (Neuregulin-1) at 50 ng/ml, PDGFaa (Platelet derived growth factor a) at 50 ng/ml, PDGFbb (platelet derive growth factor b) at 30 ng/ml, Ang2 (Angiopoeitin 2) at 400 ng/ml, amphiregulin at 100 ng/ml, HMGB 1 (Human high-mobility group box 1 protein) at 50 ng/ml; [2] From Genscript, LIF (Leukemia inhibitory factor) at 20 ng/ml, GM-CSF (Granulocyte macrophage colony stimulating factor) at 25 ng/ml, M-CSF (Macrophage colony stimulating factor) at 50 ng/ml; [3] From Anaspec, PAR1 (Protease activated receptor 1 agonist) at 100 μM; PAR2 (Protease activated receptor 2 agonist; peptide SLIGKV-NH2, Cat. No. 60217-1) at 100 μM; PAR4 (Protease activated receptor […] agonist; peptide AYPGKF-NH2, Cat. No. 60218-1) at 100 μM; [4] From Peprotech, HGF (Hepatocyte Growth Factor) at 100 ng/ml; IL-31 (Interleukin-31) at 50 ng/ml, IL-33 (Interleukin-33) at 50 ng/ml, IL1-a (Interleukin-1 alpha) at 10 ng/ml, CTGF (Connective tissue growth factor) at 20 ng/ml, WISP1 (Wnt-1 inducible signaling pathway protein) at 20 ng/ml, PTHrP ([…] hormone-related protein) at 50 ng/ml, MCP1 (monocyte chemotactic protein-1) at 50 ng/ml; and [5] from Sigma, Fulvestrant at 1 μM. Fresh medium containing ligand and/or inhibitor was added 3-4 days after initial dose, and at Day 7 cells were harvested for western blot analysis.
Cells were plated and treated with ligand for one or 7 days. At the time of harvest, cells were trypsinized and snap frozen for later use. Total RNA was isolated using RNAqueous-4 PCR Kit (Ambion, AM1914). For qPCR on tumor material, the tumor samples were homogenized using a small tissue homogenizer (Ultra-Turrax T8 from IKA-Werke) in 175ul RNA lysis buffer. Homogenization was for 1 minute on ice. RNA was isolated using the SV Total RNA Isolation System (Promega Cat #Z3100) according to the manufactures instructions. Samples were DNase treated using the Turbo DNA-Free kit (Ambion, AM1907) and reverse transcribed using Superscript III (Invitrogen, 18080-044) for qPCR analysis. Taqman primers and Locked-Nucleic Acid probes were designed using ProbeFinder software (Universal Probe library, Roche). For mRNA analysis, real time PCR was performed using the ABI 7900HT series PCR machine. Thermocycle conditions were as follows: 50° C. for 2 minutes, 95° C. for 10 minutes, 95° C. for 15 seconds, 50° C. for 10 seconds, 60° C. for 1 minute. Data was collected over 45 cycles and then normalized to GAPDH and further normalized to the untreated control sample.

CFPAC1 cells [2] = experiment: 2D immunofluorescence of E-cadherin and vimentin; type: cell-based, human; details: cells treated 7 days with ligand, compared to untreated cells
Description: Cells were plated on coverslips and stimulated with ligand the following day (day 0). On day 4, medium and ligands were refreshed. After 7 days, the cells were fixed in 4% paraformaldehyde (EMS#15701)/PBS (Gibco #14190) for 10 minutes at room temperature, and then permeabilized in 0.1% Triton X-100 (Sigma #P1379)/PBS for 10 minutes. Cells were blocked in 3% BSA/PBS for one hour and incubated in primary antibody solution (E-cadherin, Santa Cruz #sc21791 and Vimentin, Chemicon #AB5733 in blocking buffer) for two hours at room temperature. Cells were washed in PBS and incubated in secondary antibody (Invitrogen #A11029 and Chemicon #AP194R) for one hour followed by nuclear counterstain TO-PRO3 (Invitrogen #T3605). Coverslips were mounted on slides with Pro-Long Gold antifade reagent (Invitrogen P36934). Images were captured on a Leica DMRXE microcope with SP2 scanner using Leica Confocal Software.

B1: OSM: Oncostatin M from R&D systems, used at 100 ng/ml (protein, UniProt P13725 26-221, looked up)
Oncostatin-M: AAIGSCSKEYRVLLGQLQKQTDLMQDTSRLLDPYIRIQGLDVPKLREHCRERPGAFPSEETLRGLGRRGFLQTLNATLGCVLHRLADLEQRLPKAQDLERSGLNIEDLEKLQMARPNILGLRNNIYCMAQLLDNSDTAEPTKAGRGASQPPTPTPASDAFQRKLEGCRFLHGYHRFMHSVGRVFSKWGESPNRSRR
Q: With B1 as the molecule, how does the “ACTN1 mRNA fold change” value (CFPAC1 cells [1]; ligand 1 Day) read?
A: NC (Only changes greater than 3 fold are reported. NC indicates no change.)

Q: And the “CDH1 mRNA fold change” value (CFPAC1 cells [1]; ligand 1 Day)?
A: NC (Only changes greater than 3 fold are reported. NC indicates no change.)

Q: And the “CDH2 mRNA fold change” value (CFPAC1 cells [1]; ligand 1 Day)?
A: NC (Only changes greater than 3 fold are reported. NC indicates no change.)

Q: And the “ITGB3 mRNA fold change” value (CFPAC1 cells [1]; ligand 1 Day)?
A: 31.39 fold

Q: What about the “MMP7 mRNA fold change” value (CFPAC1 cells [1]; ligand 1 Day) of the same molecule?
A: NC (Only changes greater than 3 fold are reported. NC indicates no change.)

Q: What about the “MTA3 mRNA fold change” value (CFPAC1 cells [1]; ligand 1 Day) of the same molecule?
A: NC (Only changes greater than 3 fold are reported. NC indicates no change.)

Q: What about the “PLAUR mRNA fold change” value (CFPAC1 cells [1]; ligand 1 Day) of the same molecule?
A: NC (Only changes greater than 3 fold are reported. NC indicates no change.)

Q: And the “SNAI1 mRNA fold change” value (CFPAC1 cells [1]; ligand 1 Day)?
A: NC (Only changes greater than 3 fold are reported. NC indicates no change.)

Q: What about the “SNAI2 mRNA fold change” value (CFPAC1 cells [1]; ligand 1 Day) of the same molecule?
A: NC (Only changes greater than 3 fold are reported. NC indicates no change.)

Q: What about the “SPARC mRNA fold change” value (CFPAC1 cells [1]; ligand 1 Day) of the same molecule?
A: NC (Only changes greater than 3 fold are reported. NC indicates no change.)

Q: What about the “TWIST1 mRNA fold change” value (CFPAC1 cells [1]; ligand 1 Day) of the same molecule?
A: NC (Only changes greater than 3 fold are reported. NC indicates no change.)

Q: What about the “VIM mRNA fold change” value (CFPAC1 cells [1]; ligand 1 Day) of the same molecule?
A: NC (Only changes greater than 3 fold are reported. NC indicates no change.)

Q: And the “ZEB1 mRNA fold change” value (CFPAC1 cells [1]; ligand 1 Day)?
A: NC (Only changes greater than 3 fold are reported. NC indicates no change.)

Q: What about the “ZEB2 mRNA fold change” value (CFPAC1 cells [1]; ligand 1 Day) of the same molecule?
A: 3.52 fold

Q: And the “ACTN1 mRNA fold change” value (CFPAC1 cells [1]; ligand 7 Day)?
A: NC (Only changes greater than 3 fold are reported. NC indicates no change.)

Q: And the “CDH1 mRNA fold change” value (CFPAC1 cells [1]; ligand 7 Day)?
A: −3.06 fold

Q: And the “CDH2 mRNA fold change” value (CFPAC1 cells [1]; ligand 7 Day)?
A: NC (Only changes greater than 3 fold are reported. NC indicates no change.)

Q: What about the “ITGB3 mRNA fold change” value (CFPAC1 cells [1]; ligand 7 Day) of the same molecule?
A: 106.2 fold

Q: What about the “MMP7 mRNA fold change” value (CFPAC1 cells [1]; ligand 7 Day) of the same molecule?
A: NC (Only changes greater than 3 fold are reported. NC indicates no change.)

Q: And the “MTA3 mRNA fold change” value (CFPAC1 cells [1]; ligand 7 Day)?
A: NC (Only changes greater than 3 fold are reported. NC indicates no change.)

Q: And the “PLAUR mRNA fold change” value (CFPAC1 cells [1]; ligand 7 Day)?
A: NC (Only changes greater than 3 fold are reported. NC indicates no change.)

Q: And the “SNAI1 mRNA fold change” value (CFPAC1 cells [1]; ligand 7 Day)?
A: NC (Only changes greater than 3 fold are reported. NC indicates no change.)

Q: What about the “SNAI2 mRNA fold change” value (CFPAC1 cells [1]; ligand 7 Day) of the same molecule?
A: NC (Only changes greater than 3 fold are reported. NC indicates no change.)

Q: And the “SPARC mRNA fold change” value (CFPAC1 cells [1]; ligand 7 Day)?
A: −33 fold

Q: What about the “TWIST1 mRNA fold change” value (CFPAC1 cells [1]; ligand 7 Day) of the same molecule?
A: 3.3 fold

Q: And the “VIM mRNA fold change” value (CFPAC1 cells [1]; ligand 7 Day)?
A: NC (Only changes greater than 3 fold are reported. NC indicates no change.)

Q: What about the “ZEB1 mRNA fold change” value (CFPAC1 cells [1]; ligand 7 Day) of the same molecule?
A: 3.00 fold

Q: What about the “ZEB2 mRNA fold change” value (CFPAC1 cells [1]; ligand 7 Day) of the same molecule?
A: 13.7 fold

Q: What about the “E-cadherin and vimentin staining” value (CFPAC1 cells [2]) of the same molecule?
A: strong vimentin staining with no E-cadherin

— US8642834B2, “Methods for the identification of agents that inhibit mesenchymal-like tumor cells or their formation” (OSI Pharmaceuticals, LLC, priority 2009, dated 2014)
